# Data: paper PMC2789240, “Comparative structural, kinetic and inhibitor studies of Trypanosoma brucei trypanothione reductase with T. cruzi^” (Molecular and Biochemical Parasitology, 2010)
# Legend:
# [1] = substrate: N[C@@H](CCC(=O)N[C@H]1CSSC[C@H](NC(=O)CC[C@H](N)C(=O)O)C(=O)NCC(=O)NCCCNCCCCNC(=O)CNC1=O)C(=O)O; assay: 412 nm DTNB-coupled trypanothione reductase assay (IC50, Km); type: biochemical, Trypanosoma cruzi; conditions: other: saturating NADPH; pH 7.4; 25.0 °C
# Experimental: Assay plates were prepared using a Precision2000 liquid handler (Bio-Tek) with a final DMSO concentration of 1% in all wells. Plates contained a 10-point serial dilution (2-fold or 3-fold dilutions) across columns 2–11 with a top concentration of 100 μM or 200 μM. […] Column 1 contained full signal controls (no inhibitor) and column 12 contained background controls (no enzyme).
# [2] = substrate: N[C@@H](CCC(=O)N[C@H]1CSSC[C@H](NC(=O)CC[C@H](N)C(=O)O)C(=O)NCC(=O)NCCCNCCCCNC(=O)CNC1=O)C(=O)O; assay: 340 nm NADPH oxidation trypanothione reductase assay; type: biochemical, Trypanosoma cruzi; conditions: other: 340 nm assay; pH 7.4; 25.0 °C
# Experimental: TryR was assayed spectrophotometrically either by monitoring the trypanothione-dependent oxidation of NADPH at 340 nm, or by the reduction of 5,5′-dithio-bis(2-nitrobenzoic acid) (DTNB) at 412 nm (see Fig. 1B). Assays at 340 nm were carried out at 25 °C in 500 μl volume acrylic cuvettes and changes in absorbance monitored with a UV-1601 PC spectrophotometer (Shimadzu). The standard assay mixture contained 40 mM HEPES pH 7.4, 1 mM EDTA, ∼10 mU ml^−1 TryR, 150 μM NADPH and 100 μM T(S)2. Assays at 412 nm were carried out in 96-well plates (Polysorp, Nunc) at room temperature in a volume of 200 μl. Changes in absorbance were monitored in a SpectraMax 340pc plate reader (Molecular Devices). The standard assay mixture contained 40 mM HEPES pH 7.4, 1 mM EDTA, ∼10 mU ml^−1 TryR, 150 μM NADPH, 6 μM T(S)2 and 50 μM DTNB. All assays were initiated by addition of the T(S)2. Data was collected using SoftMax Pro (molecular devices) and UVProbe 2 (Shimadzu) software, processed and analysed using Excel 2002 (Microsoft) and GraFit 5 (Erithacus Software). NADPH stock solutions were measured spectrophotometrically at 340 nm using an absorption coefficient of 6.22 × 10^3 M^−1 cm^−1[16]. The concentration of T(S)2 stock solutions were determined by measuring the oxidation of NADPH in the presence of excess TryR.
# Km values with respect to T(S)2 were determined for TbTryR in both assays using purified recombinant T. cruzi TryR for comparison. Determinations for each enzyme were carried out in three independent experiments and a weighted mean calculated.
Protein,Km [1] [µM],Km [2] [µM],kcat [2] [s⁻¹],kcat/Km [2] [M⁻¹ s⁻¹]
"TcTryR (recombinant T. cruzi trypanothione reductase) (Trypanosoma cruzi) (protein, made in house) MMSKIFDLVVIGAGSGGLEAAWNAATLYKKRVAVIDVQMVHGPPFFSALGGTCVNVGCVPKKLMVTGAQYMEHLRESAGFGWEFDRTTLRAEWKKLIAVKDEAVLNINKSYEEMFRDTEGLEFFLGWGSLESKNVVNVRESADPASAVKERLETENILLASGSWPHMPNIPGIEHCISSNEAFYLPEPPRRVLTVGGGFISVEFAGIFNAYKPKDGQVTLCYRGEMILRGFDHTLREELTKQLTANGIQILTKENPAKVELNADGSKSVTFESGKKMDFDLVMMAIGRSPRTKDLQLQNAGVMIKNGGVQVDEYSRTNVSNIYAIGDVTNRVMLTPVAINEAAALVDTVFGTNPRKTDHTRVASAVFSIPPIGTCGLIEEVASKRYEVVAVYLSSFTPLMHNISGSKYKTFVAKIITNHSDGTVLGVHLLGDNAPEIIQGVGICLKLNAKISDFYNTIGVHPTSAEELCSMRTPSYYYVKGEKMEKPSEASL",10.4 ± 0.3,,,
"TcTryR (Trypanosoma cruzi) (protein, made in house) MMSKIFDLVVIGAGSGGLEAAWNAATLYKKRVAVIDVQMVHGPPFFSALGGTCVNVGCVPKKLMVTGAQYMEHLRESAGFGWEFDRTTLRAEWKKLIAVKDEAVLNINKSYEEMFRDTEGLEFFLGWGSLESKNVVNVRESADPASAVKERLETENILLASGSWPHMPNIPGIEHCISSNEAFYLPEPPRRVLTVGGGFISVEFAGIFNAYKPKDGQVTLCYRGEMILRGFDHTLREELTKQLTANGIQILTKENPAKVELNADGSKSVTFESGKKMDFDLVMMAIGRSPRTKDLQLQNAGVMIKNGGVQVDEYSRTNVSNIYAIGDVTNRVMLTPVAINEAAALVDTVFGTNPRKTDHTRVASAVFSIPPIGTCGLIEEVASKRYEVVAVYLSSFTPLMHNISGSKYKTFVAKIITNHSDGTVLGVHLLGDNAPEIIQGVGICLKLNAKISDFYNTIGVHPTSAEELCSMRTPSYYYVKGEKMEKPSEASL",,29.6 ± 2.8,77 ± 8,2.6e+06
